Laboratory results: article PMC4598629

What was measured:
[1] = biological target: SOAR, purified wild-type protein (UniProt Q13586); assay: SEC; purified SOAR and SOAR-F394H, ~0.5 mg/ml, Superdex-200 16/60, 200 mM NaCl, 20 mM Mes-NaOH pH 6.5, 2.5 ml/min; calibrated with protein standards; monomers to dimer
[2] = biological target: SOAR, purified wild-type protein (UniProt Q13586); assay: cross-linking; purified proteins dialysed against PBS, 0.5 mg/ml, disuccinimidyl suberate 0, 0.1 and 1 mM, 30 min, room temperature; SDS-PAGE, Coomassie blue; monomers to dimer
[3] = biological target: SOAR-F394H, purified protein (UniProt Q13586); assay: SEC; purified SOAR and SOAR-F394H, ~0.5 mg/ml, Superdex-200 16/60, 200 mM NaCl, 20 mM Mes-NaOH pH 6.5, 2.5 ml/min; calibrated with protein standards; monomers to dimer
[4] = biological target: SOAR-F394H, purified protein (UniProt Q13586); assay: cross-linking; purified proteins dialysed against PBS, 0.5 mg/ml, disuccinimidyl suberate 0, 0.1 and 1 mM, 30 min, room temperature; SDS-PAGE, Coomassie blue; monomers to dimer

Substance: SOAR, purified wild-type protein (from UniProt Q13586 344-442) (domain or fragment)
- stoichiometry N [1]: 2
- stoichiometry N [2]: 2

Substance: SOAR-F394H, purified protein (from UniProt Q13586 344-442) (domain or fragment)
- stoichiometry N [3]: 2
- stoichiometry N [4]: 2
